Columns and labels:
[1] = tested on: Huaidao No. 5 rice seedlings; assay: Gene-edited rice seedlings (base editing / homologous replacement of HPPD gene) on medium containing tembotrione; format: in vivo; settings: medium containing 0.4 μM tembotrione
Method: The calli of Huaidao No. 5 (at least 3000 callis) were infected according to the aforesaid method for infecting rice callis with Agrobacterium. After being infected with Agrobacterium, the infected calli were transferred to a 50 mg/L hyg screening medium for screening culture. After three rounds (15 days×3) of screening, the blond calli with good growth state were picked out to differentiate in a differentiation medium, and 0.2 μM tembotrione was added during the differentiation process for screening. After for 3-4 weeks, about 1,500 seedlings with around 1 cm were obtained. As to the about 1,500 differentiated seedlings, the vast majority of which had been bleached, and only 4 seedlings remained normal green. The 4 seedlings were transplanted to a rooting medium containing 0.4 μM tembotrione and cultivated for 2 weeks, wherein two seedlings had been bleached, while the other two seedlings remained green (FIG. 14A). A small number of leaves were used to extract genomic DNA by CTAB method. PCR was carried out by using the primers oshppd54F: TTCCACCACGTCGAGCTC and Oshppd356R: […]. The amplified product was detected by 1% agarose electrophoresis and sequenced by Sanger sequencing method. […]

[2] = tested on: rice HPPD (OsHPPD); assay: Color reaction of recombinant E. coli expressing wild-type or mutant rice HPPD, cultured in 96-well plate in medium containing an HPPD-inhibiting herbicide and tyrosine; format: cell-based, Oryza sativa; settings: tembotrione and metabolic product of benzuofucaotong, FIG. 1
Text: The rice full-length OsHPPD enzyme has 446 amino acids and its amino acid sequence is set forth in SEQ ID NO: 2, wherein the amino acids 1-50 are considered to constitute a signal peptide which is responsible for directing into chloroplast (Siehl et al. Plant Physiol. 2014 November; 166(3): 1162-1176). Therefore, from the amino acid at the 51-position to the amino acid at the […], a saturated random mutation was made for each amino acid. This was achieved by performing a bridge PCR by using a primer containing a coding sequence of an amino acid to be mutated into NNK and another suitable conventional primer. In NNK, N represented A/T/G/C and K represented G/T, and the NNK codon could encode any one of 20 amino acids or terminators. Accordingly, this was a saturated mutation. Please see: Kille S. Acevedo-Rocha C G, Parra L P, Zhang Z G, Opperman D J, Reetz M T, Acevedo J P (2013) Reducing codon redundancy and screening effort of combinatorial protein libraries created by saturation mutagenesis. ACS Synth Biol 2(2):83-92; Directed Evolution Library Creation: methods and protocols 2nd ed. Edited by Elizabeth M. J. Gillam, Janine N. Copp and David F. Ackerley New York, NY United States: Springer, 2014. doi:10.1007/978-1-4939-1053-3. A large number of mutants would be produced. The mutant was cloned into a linearized pET-44a vector and transformed into E. co/i, which was cultivated by using a 96-well plate in a 2×YT culture solution containing an HPPD-inhibiting herbicide (such as 1-2 μM tembotrione) and a substrate tyrosine (1 g/L) in a shaker at 28° C. and 150 rpm for 24 hours for expression, and then the mutants were rapidly screened out according to their color browning. By using the method, 10 single amino acid mutants, A103S, H141R, H141 K, H141T, A165V, V191I, R220K, G342D, D370N and K410I, were screened out. The color reaction of these resistant mutants in the presence of tembotrione and the metabolic product of benzuofucaotong relative to that of the wild type was as shown in FIG. 1.
Similarly, the color reaction of these mutants in the presence of the other three HPPD-inhibiting herbicides huanbifucaotong, topramezone and mesotrione were determined, see FIGS. 2 and 3. The resistance/tolerance of each of the mutants to the five herbicides was roughly estimated on the basis of color changes thereof and the results were shown in Table 1. The more the plus sign “+”, the deeper the color and the higher the resistance/tolerance as compared to the wild type.
HPPD-inhibiting herbicides inhibited HPPD enzymatic activity. When tyrosine was converted to 4-hydroxyphenylpyruvate (HPP) under the action of tyrosine transaminase, the inactivated HPPD was unable to oxidize 4-hydroxyphenylpyruvate into homogentisic acid (HGA). HGA was dark brown. Therefore, if an HPPD mutant was resistant to or tolerant to an herbicide, after expressed in E. coli, the mutant could also oxidize 4-hydroxyphenylpyruvate into homogentisic acid, whereby dark brown appeared. Therefore, E. coli was cultured in a 2×YT culture medium containing a HPPD-inhibiting herbicide and a substrate tyrosine using a 96-well plate to express HPPD, and these mutants were rapidly screened according to their color changes. • (1) Preparation of 2×YT culture medium (1 g/L L-Tyr, 0.1 mM IPTG, 0.01 mM MnCl2 and 100 mg/L ampicillin were added). • (2) 0.1 mL of the above medium was added to each well of a 96-well plate, and the expression clones of OsHPPD wild type or mutant (OsHPPD Mut) from the E. coli plate obtained by the above transformation were subjected to liquid culture in the 96-well plate. HPPD inhibitors having a final concentration of 1 μM-20 μM were added according to different selected agents, for example, the final concentration of tembotrione was 1.7 μM while mesotrione was 10 μM. […]

B1: H141R: single-site mutant rice HPPD (protein, listed as Oryza sativa)
chain: MPPTPTPTATTGAVSAAAAAGENAGFRLVGHRRFVRANPRSDRFQALAFHHVELWCADAASAAGRFAFALGAPLAARSDLSTGNSAHASLLLRSASVAFLFTAPYGGDHGVGADAATTASIPSFSPGAARRFAADHGLAVRAVALRVADAADAFRASVAAGARPAFQPADLGGGFGLAEVELYGDVVLRFVSHPDGADAPFLPGFEGVSNPGAVDYGLRRFDHVVGNVPELAPVAAYISGFTGFHEFAEFTAEDVGTAESGLNSVVLANNAETVLLPLNEPVHGTKRRSQIQTYLDHHGGPGVQHIALASDDVLGTLREMRARSAMGGFEFLAPPPPNYYDGVRRRAGDVLSEEQINECQELGVLVDRDDQGVLLQIFTKPVGDRPTFFLEMIQRIGCMEKDESGQEYQKGGCGGFGKGNFSELFKSIEEYEKSLEAKQAPTVQGS
modifications: The amino acid sequence of Wild-Type rice HPPD protein (OsHPPD _WT)
For B1, the “state of successfully edited seedlings” value [1] was “remain green” and the “color change compared with wild type” value [2] was “obviously deeper than that of the wild type”.

From patent US12428627B2, “Mutant p-hydroxyphenylpyruvate dioxygenase, and coding nucleic acid and use thereof” (Qingdao Kingagroot Chemical Compound Co., Ltd., priority 2018, dated 2025)
